Experimental data as given in US20210107982A1 (NANJING LEADS BIOLABS, published 2021).
Where two headings read alike, the source gives them in different places.

T1: Human OX40 (Sinobiological, Cat #10481-H08H) (human, UniProt P43489 29-216)
T1 sequence (looked up): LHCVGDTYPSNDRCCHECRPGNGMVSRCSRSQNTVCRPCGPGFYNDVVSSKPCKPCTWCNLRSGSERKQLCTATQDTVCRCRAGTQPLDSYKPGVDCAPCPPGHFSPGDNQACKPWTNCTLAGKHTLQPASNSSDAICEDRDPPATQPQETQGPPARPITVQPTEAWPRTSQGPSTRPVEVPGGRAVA

T2: Human CD27 (Sinobiological, Cat #10039-H31H) (human, UniProt P26842 20-192)
T2 sequence (looked up): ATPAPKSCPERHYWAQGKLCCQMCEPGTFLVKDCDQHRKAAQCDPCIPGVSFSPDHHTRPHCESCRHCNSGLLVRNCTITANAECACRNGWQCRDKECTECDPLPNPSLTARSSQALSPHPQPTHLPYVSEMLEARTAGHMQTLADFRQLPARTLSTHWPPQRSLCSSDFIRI

T3: Human GITR (Sinobiological, Cat #13643-H08H) (human, UniProt Q9Y5U5 26-161)
T3 sequence (looked up): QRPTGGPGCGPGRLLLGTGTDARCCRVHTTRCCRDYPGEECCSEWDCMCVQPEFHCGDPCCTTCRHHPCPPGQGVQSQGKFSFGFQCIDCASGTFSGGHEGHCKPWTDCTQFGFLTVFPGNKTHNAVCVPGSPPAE

T4: Human HVEM (Sinobiological, Cat #10334-H03H) (human, UniProt Q92956 39-202)
T4 sequence (looked up): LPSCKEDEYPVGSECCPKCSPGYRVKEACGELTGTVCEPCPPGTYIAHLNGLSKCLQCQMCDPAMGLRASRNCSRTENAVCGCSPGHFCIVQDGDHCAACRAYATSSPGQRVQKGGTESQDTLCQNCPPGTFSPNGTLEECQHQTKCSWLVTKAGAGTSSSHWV


Columns and labels:
[1] = biological target: T5, Human 4-1BB, human Fc tag protein (Hu4-1BB-hFc) (human); experiment: ELISA, Hu4-1BB-hFc coated, antibody 6.65 nM to 0.009 nM
T5 construct: also called Hu4-1BB-huFc; human 4-1BB proteins

[2] = biological target: T6, Human 4-1BB recombinant protein (Sinobiological, Cat #10041-H08H) (human, UniProt Q07011 24-186); experiment: BLI (ForteBio Octet RED 96), antibody on AHC sensors, human 4-1BB as analyte, 1:1 model
T6 construct: Bought recombinant protein

[3] = biological target: T7, Human 4-1BB expressed on HEK293-NFκB-Luc-human 4-1BB cells (human, UniProt Q07011 24-255); experiment: cell-based or functional assay
[4] = biological target: T7, Human 4-1BB expressed on …; experiment: cell-based or functional assay; remark: listed apart in the source
[5] = biological target: T1, Human OX40 (Sinobiological, Cat …); experiment: ELISA, antigen coated at 25 ng/well
[6] = biological target: T2, Human CD27 (Sinobiological, Cat …); experiment: ELISA, antigen coated at 25 ng/well
[7] = biological target: T3, Human GITR (Sinobiological, Cat …); experiment: ELISA, antigen coated at 25 ng/well
[8] = biological target: Human CD40 (Sinobiological, Cat #10774-H08H) (human, UniProt P25942 21-193); experiment: ELISA, antigen coated at 25 ng/well
[9] = biological target: T4, Human HVEM (Sinobiological, Cat …); experiment: ELISA, antigen coated at 25 ng/well
[10] = biological target: T6, Human 4-1BB recombinant protein …; experiment: ELISA on plate-coated human 4-1BB (25 ng/well), HRP anti-human IgG F(ab')2 detection, OD450; EC50 table under the curve, unit taken from the axis 'Antibody Conc [nM]'
[11] = biological target: T7, Human 4-1BB expressed on …; experiment: cell-based or functional assay; remark: listed apart in the source
[12] = biological target: T7, Human 4-1BB expressed on …; experiment: cell-based or functional assay; remark: listed apart in the source
[13] = biological target: T7, Human 4-1BB expressed on …; experiment: cell-based or functional assay; remark: listed apart in the source
[14] = biological target: T6, Human 4-1BB recombinant protein …; experiment: ELISA on plate-coated human 4-1BB (25 ng/well), HRP anti-human IgG F(ab')2 detection, OD450-620; EC50 table under the curve, unit taken from the axis 'Antibody Conc [nM]'
[15] = biological target: T7, Human 4-1BB expressed on …; experiment: cell-based or functional assay; remark: listed apart in the source
[16] = biological target: T7, Human 4-1BB expressed on …; experiment: cell-based or functional assay; remark: listed apart in the source
[17] = biological target: T6, Human 4-1BB recombinant protein …; experiment: ELISA on plate-coated human 4-1BB (25 ng/well), HRP anti-human IgG F(ab')2 detection, OD450; EC50 table under the curve, unit taken from the axis 'Antibody Conc [nM]'; remark: listed apart in the source
[18] = biological target: T6, Human 4-1BB recombinant protein …; experiment: as above; remark: listed apart in the source

Chain of Human CD40 (Sinobiological, Cat #10774-H08H) (P25942 21-193 limits assumed): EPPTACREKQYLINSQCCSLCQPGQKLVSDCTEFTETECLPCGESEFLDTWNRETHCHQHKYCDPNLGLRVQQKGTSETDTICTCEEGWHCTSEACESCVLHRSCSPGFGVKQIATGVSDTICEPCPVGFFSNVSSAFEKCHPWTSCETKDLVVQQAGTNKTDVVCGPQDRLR
T7 sequence (Q07011 24-255 limits assumed): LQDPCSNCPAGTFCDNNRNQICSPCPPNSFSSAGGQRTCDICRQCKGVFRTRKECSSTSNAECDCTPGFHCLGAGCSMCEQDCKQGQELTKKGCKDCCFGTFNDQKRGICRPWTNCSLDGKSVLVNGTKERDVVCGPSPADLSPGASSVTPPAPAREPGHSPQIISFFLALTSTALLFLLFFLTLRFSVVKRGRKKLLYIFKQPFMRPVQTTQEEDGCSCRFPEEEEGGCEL
T5 sequence (chain, as listed by the source limits assumed): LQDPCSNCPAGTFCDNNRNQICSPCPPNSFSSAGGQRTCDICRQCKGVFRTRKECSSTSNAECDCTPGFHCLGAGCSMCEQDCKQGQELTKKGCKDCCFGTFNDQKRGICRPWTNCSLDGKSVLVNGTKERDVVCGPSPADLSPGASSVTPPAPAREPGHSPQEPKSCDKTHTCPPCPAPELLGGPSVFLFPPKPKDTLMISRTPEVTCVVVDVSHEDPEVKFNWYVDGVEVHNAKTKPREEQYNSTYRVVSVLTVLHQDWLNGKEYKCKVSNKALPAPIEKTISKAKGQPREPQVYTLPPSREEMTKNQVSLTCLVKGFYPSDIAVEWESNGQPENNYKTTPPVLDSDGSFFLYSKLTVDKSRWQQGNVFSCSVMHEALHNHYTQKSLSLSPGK

Binder | binding result [5] | binding result [6] | binding result [7] | binding result [8] | binding result [9] | further results
P4B-2 (bispecific antibody, human IgG1, kappa, L234A L235A, PD-L1 x 4-1BB bispecific; the 4-1BB scFv stands at the N-terminus of each heavy chain of the PD-L1 antibody) heavy: not shown light: DIQMTQSPSSLSASVGDRVTITCKASQNVMDNVAWYQQKPGKAPKRLIYSASYRFSGVPSRFSGSGSGTEFTLTISSLQPEDFATYYCQQYNGYPLTFGQGTKLEIKRTVAAPSVFIFPPSDEQLKSGTASVVCLLNNFYPREAKVQWKVDNALQSGNSQESVTEQDSKDSTYSLSSTLTLSKADYEKHKVYACEVTHQGLSSPVTKSFNRGEC | – | – | – | – | – | EC50 [1]: 0.113 nM
P4B-3 (bispecific antibody, human IgG1, kappa, L234A L235A, PD-L1 x 4-1BB bispecific; the 4-1BB scFv stands at the C-terminus of each heavy chain of the PD-L1 antibody) heavy: not shown light: DIQMTQSPSSLSASVGDRVTITCKASQNVMDNVAWYQQKPGKAPKRLIYSASYRFSGVPSRFSGSGSGTEFTLTISSLQPEDFATYYCQQYNGYPLTFGQGTKLEIKRTVAAPSVFIFPPSDEQLKSGTASVVCLLNNFYPREAKVQWKVDNALQSGNSQESVTEQDSKDSTYSLSSTLTLSKADYEKHKVYACEVTHQGLSSPVTKSFNRGEC | – | – | – | – | – | EC50 [1]: 0.0723 nM; Kd [2]: 146 nM; koff [2]: 0.00409 s⁻¹; kon [2]: 28000 M⁻¹ s⁻¹
41BB-2-IgG2 (antibody, V domains shown, Full antibody; VH joined to the IgG2 constant region, VL to the lambda constant region) VH: QVQLQESGGGLVQPGGSLRLSCAVSGFTFSSYAMHWVRQAPGKGLEWVAVISYDGSKKWYADSVKGRFTISRDNSKNTLYLQMNSLRAEDTAVYYCARNQGSGSYLYYYYMDVWGKGTTVTVSS VL: QSALTQPRSVSGSPGQSVTISCTGTSSDVGGYNYVSWYQQLPGKAPKVIIYEVSNRPSGVSNRFSGSKSGNTASLTISGVQSEDEADYYCSSYTSSSTFYVFGTGTQLTVLS | no binding (tested: 500 ng/mL) | no binding (tested: 500 ng/mL) | no binding (tested: 500 ng/mL) | no binding (tested: 500 ng/mL) | no binding (tested: 500 ng/mL) | EC50, NFκB-luciferase reporter (RLUs) in HEK293-NFκB-Luc-4-1BB cells, without crosslink [11]: 47.4 nM; EC50, NFκB-luciferase reporter (RLUs) in HEK293-NFκB-Luc-4-1BB cells, with crosslink (goat anti-human IgG) [12]: 6.21 nM; EC50, NFκB-luciferase reporter (RLUs) in HEK293-NFκB-Luc-4-1BB cells, without crosslink [13]: 56.1 nM; EC50 [14]: 0.622 nM
41BB-13-IgG2 (antibody, V domains shown, Full antibody, IgG2 / lambda) VH: EVQLVETGVEVKKPGASVKVSCKASGYTFTSYYMHWVRQAPGQGLEWMGIINPSGGSTSYAQKFQGRVTMTRDTSTSTAYMELSSLRSEDTAVYYCARDLGEGYDFWSGYYTPSGAFDIWGKGTMVTVSS VL: QSALTQPASVSGSPGQSITISCTGTSSDVGGYNYVSWYQQRPGKAPKLIIYDVTTRPSGVSNRFSGSKSGTTASLTISGLQAEDEADYYCSSYTSYSTWVFGGGTKLTVLG | no binding (tested: 500 ng/mL) | no binding (tested: 500 ng/mL) | no binding (tested: 500 ng/mL) | no binding (tested: 500 ng/mL) | no binding (tested: 500 ng/mL) | EC50, NFκB-luciferase reporter (RLUs) in HEK293-NFκB-Luc-4-1BB cells, without crosslink [15]: 106 nM; EC50, NFκB-luciferase reporter (RLUs) in HEK293-NFκB-Luc-4-1BB cells, with crosslink (goat anti-human IgG) [16]: 10.6 nM; EC50 [17]: 1.27 nM
Urelumab (antibody, human IgG4 S228P, kappa, V domains shown) VH: QVQLQQWGAGLLKPSETLSLTCAVYGGSFSGYYWSWIRQSPEKGLEWIGEINHGGYVTYNPSLESRVTISVDTSKNQFSLKLSSVTAADTAVYYCARDYGPGNYDWYFDLWGRGTLVTVSS VL: EIVLTQSPATLSLSPGERATLSCRASQSVSSYLAWYQQKPGQAPRLLIYDASNRATGIPARFSGSGSGTDFTLTISSLEPEDFAVYYCQQRSNWPPALTFCGGTKVEIKR | – | – | – | – | – | EC50, NFκB-luciferase reporter (RLUs) in HEK293-NFκB-Luc-4-1BB cells, without crosslink [11]: 26.8 nM; EC50, NFκB-luciferase reporter (RLUs) in HEK293-NFκB-Luc-4-1BB cells, without crosslink [3]: 34 nM; EC50, NFκB-luciferase reporter (RLUs) in HEK293-NFκB-Luc-4-1BB cells, without crosslink [15]: 32.3 nM

Continued, in another order:

binding result [5] | binding result [6] | binding result [7] | binding result [8] | binding result [9] | Binder | further results
no binding (tested: 500 ng/mL) | no binding (tested: 500 ng/mL) | no binding (tested: 500 ng/mL) | no binding (tested: 500 ng/mL) | no binding (tested: 500 ng/mL) | 41BB-9-IgG2 (antibody, V domains shown, Full antibody, IgG2 / lambda) VH: QVQLVQSGAEVKKPGSSVKVSCKASGGTFSSYAISWVRQAPGQGLEWMGGIIPISGAVNYAQKFQGRVTITADESTSTAYMELSSLRSEDTAVYYCARDQFIKYYDFSSGYFPNGFDIWGKGTLVTVSS VL: QTVVTQPPSVSVSPGQTASITCSGDKLGDKYAAWYQQKPGQSPVLVIYQDTVRPSGIPERFSGSNSGNTATLTISGTQAMDEADYYCQTWVSSTGVFGTGTKVTVLG | EC50, NFκB-luciferase reporter (RLUs) in HEK293-NFκB-Luc-4-1BB cells, without crosslink [3]: 16.6 nM; EC50, NFκB-luciferase reporter (RLUs) in HEK293-NFκB-Luc-4-1BB cells, with crosslink (goat anti-human IgG) [4]: 3.24 nM; EC50 [10]: 0.134 nM
no binding (tested: 500 ng/mL) | no binding (tested: 500 ng/mL) | no binding (tested: 500 ng/mL) | no binding (tested: 500 ng/mL) | no binding (tested: 500 ng/mL) | 41BB-27-IgG2 (antibody, V domains shown, Full antibody, IgG2 / lambda) VH: QVQLQESGPGPVKPSETLSLTCAVSGGSISSSHWWSWVRQPPGKGLEWIGEIYHSGRTYYNPSLKSRVTISVDTSRNQFSLKLSSVTAADTAVYYCAREDGGIMDVWGQGTLVTVSS VL: LSSELTQDPAVSVALGQTVRITCQGDSLRRFYASWYQQKPGQAPVLVIYGKNNRPSGIPDRFSASDSGNTASLTITGAQAEDEADYYCSSRDRSGYRWVFGGGTKVTVLG | EC50, NFκB-luciferase reporter (RLUs) in HEK293-NFκB-Luc-4-1BB cells, without crosslink [13]: 35.9 nM; EC50 [18]: 0.05 nM
